Test results as given in the supplement of paper PMC12764529.
± gives the half width of the 95% confidence interval.

Experiments:
[1] = folding stability dG unfold from trypsin proteolysis; higher = more stable
Procedure, shortened: (§1)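 Sequencing followed digestion of designed mini-proteins with trypsin and chymotrypsin, each at 11 concentrations in threefold dilutions together with a no-protease condition. The mini-proteins were under 80 residues, had no cysteine, sat in a PA-tagged cDNA display construct, and were kept only if AlphaFold2 dimer inter-PAE was above 15. From the counts, Bayesian fitting gave K50, and unfolding free energy was derived against a sequence-predicted unfolded-state K50 and a shared folded-state K50, per protease or combined.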

[2] = folding stability dG unfold (combined trypsin and chymotrypsin); higher = more stable
Procedure, shortened: as §1

[3] = folding stability dG unfold from chymotrypsin proteolysis; higher = more stable
Procedure, shortened: as §1

Sequence	folding stability dG unfold [1]	folding stability dG unfold [2]	folding stability dG unfold [3]
SAGGKKKTAEELAEELKKKLEELGFKVVKIEKLPDGTVLITFEDGYVIKFDVKTGKITIMPKEELEKLSAGG [r13_717_TrROS_Hall]	6.77 ± 0.46 kJ/mol	8.19 ± 0.331 kJ/mol	9.02 ± 0.121 kJ/mol
SAGGFVTFKAPPVLIEAFKKAGLTPSEAKTLLLPVKFGDKEVVVEVTFYPETGEVKVKVLSFGTEFEAESAG [r5_545_TrMRF]	9.31 ± 0.289 kJ/mol	12.8 ± 0.544 kJ/mol	14.1 ± 0.167 kJ/mol
SAKKVKIEIKNKETNKIYTIEIKEDGKVTIKNKETGEEIEVEINGKKITFPPGASIDEIIKKLEEALKKSAG [r14_561_TrROS_Hall]	7.2 ± 0.669 kJ/mol	10.7 ± 1.3 kJ/mol	11.6 ± 0.502 kJ/mol
SAGGSAMSIPLEELIEYVKKPGYKITEKKLPNGTLEITITNPKTGKTTKVTVYPPPTFSVEIKPDPSAGGSA [r15_442_JUSTAS]	5.36 ± 0.142 kJ/mol	4.5 ± 0.381 kJ/mol	3.67 ± 0.502 kJ/mol
SKNKVEITIPMPYSQAREIARQLGLPPEKFKDPKDLVDWLKDLFPKDVKIRIQPMKPVTEEERRARQNGKSA [r9_74_TrROS]	3.42 ± 0.502 kJ/mol	4.7 ± 0.356 kJ/mol	5.6 ± 0.318 kJ/mol
SMTLITLTDPVTNVPVEKVEVRKLEDGTYEATVTTKEPSKTTTKTYPLPPDEKITDVLKSLGLKEAEINLSA [r9_492_JUSTAS]	1.07 ± 0.151 kJ/mol	1.86 ± 0.711 kJ/mol	2.25 ± 0.389 kJ/mol
SAGGSAGGSDPDLDIPPAPLEEIYIPGTGRLLVLYEPTGLVAAYPPSGSFEIGVYDPETGKISSAGGSAGGS [r12_420_TrMRF]	-0.0997 ± 0.305 kJ/mol	-1.24 ± 0.502 kJ/mol	-3.24 ± 1.26 kJ/mol
SAGGMIEKIKEAAKKLGLKVKIEEVKFDKKTKKVTIKITLENGKKIEITVEMSEEELLNAIKELIKKSAGGS [r16_153_TrROS_Hall]	10.6 ± 0.46 kJ/mol	14 ± 0.586 kJ/mol	15.1 ± 0.381 kJ/mol
SAGGSAGGSASSVPARLPDATVLEVTTDPATGLQTALLRFPDGSEVVVTHYPDGSVEVRPLSAGGSAGGSAG [r3_348_JUSTAS]	7.69 ± 0.259 kJ/mol	10.3 ± 0.414 kJ/mol	11.2 ± 0.117 kJ/mol
SAGGSAGGSAGVIPLPGGEEVEYFPEKGEATVRLPDGTVYKVEITKAPDGSLSVTVTPAGSAGGSAGGSAGG [r11_331_JUSTAS]	7.48 ± 0.218 kJ/mol	6.08 ± 0.218 kJ/mol	4.6 ± 0.146 kJ/mol
SAGGSAGGSAPLRFEFELPGNYRVRIELEPVPDDPSAGPRYRLRIEVFDLETGEVLPFEIDGSAGGSAGGSA [r18_66_TrMRF]	11.5 ± 0.272 kJ/mol	15.7 ± 0.255 kJ/mol	17.5 ± 0.268 kJ/mol
SAGGSAGGGHMPVTKTVQLPGRTVTLTYYPEKGTVKITFPEDGTEKTVPISPSETIEDVIKKLSSAGGSAGG [r6_166_JUSTAS]	9.72 ± 0.289 kJ/mol	10.9 ± 0.255 kJ/mol	11.5 ± 0.151 kJ/mol
SAGGMTLVLRFPSKEEALEALRELAEALGLEVEITKIEIEEREVEDPETGEKRREVLITIEVKVKPPSAGGS [r16_587_TrROS_Hall]	16 ± 1.55 kJ/mol	18.7 ± 1.21 kJ/mol	19.3 ± 0.586 kJ/mol
SAGGKKKKVIIVIEAPPGMSAEEIAAAIAEKLGLPKEEIKVERFKSVEEALAAAEKEGKEVIVIEVDSAGGS [r8_245_TrROS_Hall]	8.6 ± 0.222 kJ/mol	10.1 ± 0.402 kJ/mol	10.7 ± 0.247 kJ/mol
SAGGLPEEVEKLAEILAKLPPVVPVPVTFPDGVEVVYFPPTGFVAVRFYERDENGEWVLVGETFFPVSAGGS [r16_243_TrMRF]	10.2 ± 0.176 kJ/mol	12.5 ± 0.209 kJ/mol	13.53 ± 0.0669 kJ/mol
SAGGSAGGSAGGGPDAVRQFPPPVNLSVEVTSYTSPSSSLSNGKPEKSTFTTLNPTAGVSAGGSAGGSAGGS [r10_877_JUSTAS]	0.159 ± 0.544 kJ/mol	0.583 ± 0.46 kJ/mol	0.311 ± 0.795 kJ/mol
SAGGEPVKFIPPGWKITLTTPDGRPLTFTLPANATPEDFKSLELPGDHELEFVEFLPDGTILVRSPKSAGGS [r16_103_TrMRF]	3.96 ± 0.368 kJ/mol	4.67 ± 0.46 kJ/mol	5.02 ± 0.753 kJ/mol
SAGGSAGGSAGKKSYVLIKVKNPKTKETHTIVVPEENLEEVLKALASQPNVKVVDIERFPSAGGSAGGSAGG [r11_692_TrROS_Hall]	15.3 ± 0.795 kJ/mol	16.5 ± 0.502 kJ/mol	17.2 ± 0.272 kJ/mol
SAGGSAGGSAGGKKLRIKVKNKKTGKEIEIEIDVEDKTIEEIAKELAKKLNFEVTEIEPVSAGGSAGGSAGG [r7_590_TrROS_Hall]	9.21 ± 0.753 kJ/mol	11.5 ± 1 kJ/mol	12.1 ± 0.502 kJ/mol
SAGGSAGGSAGKIWIYNPENGWIFEISIQPHPMPNDDGEPQWMFSIDVEVYPPGKPGQPISAGGSAGGSAGG [r11_531_TrROS]	10.8 ± 0.331 kJ/mol	15 ± 0.272 kJ/mol	17.2 ± 0.276 kJ/mol
SAGDMIKIPFNFKDPNGAKPKELEVMISPDPGVITAMFKYKHNNEPKYYMISIPIDPGNGKIEIEIQPMSAG [r5_136_TrROS]	5.02 ± 0.243 kJ/mol	6.12 ± 0.502 kJ/mol	6.89 ± 0.711 kJ/mol
